Experimental data published in IntAct's records for PubMed 20543138.

B1: General transcription factor 3C polypeptide 5 (Homo sapiens), Q9Y5Q8 (parent)
chain: MAAEAADLGLGAAVPVELRRERRMVCVEYPGVVRDVAKMLPTLGGEEGVSRIYADPTKRLELYFRPKDPYCHPVCANRFSTSSLLLRIRKRTRRQKGVLGTEAHSEVTFDMEILGIISTIYKFQGMSDFQYLAVHTEAGGKHTSMYDKVLMLRPEKEAFFHQELPLYIPPPIFSRLDAPVDYFYRPETQHREGYNNPPISGENLIGLSRARRPHNAIFVNFEDEEVPKQPLEAAAQTWRRVCTNPVDRKVEEELRKLFDIRPIWSRNAVKANISVHPDKLKVLLPFIAYYMITGPWRSLWIRFGYDPRKNPDAKIYQVLDFRIRCGMKHGYAPSDLPVKAKRSTYNYSLPITVKKTSSQLVTMHDLKQGLGPSGTSGARKPASSKYKLKDSVYIFREGALPPYRQMFYQLCDLNVEELQKIIHRNDGAENSCTERDGWCLPKTSDELRDTMSLMIRQTIRSKRPALFSSSAKADGGKEQLTYESGEDEEDEEEEEEEEEDFKPSDGSENEMETEILDYV

Variants of: B1
Conditions: with mtor_human MTOR

Row | effect of a mutation on the interaction | Variant
1 | disrupting interaction | F109I
